In publication PMC1514790, “Tomosyn Inhibits Synaptic Vesicle Priming in Caenorhabditis elegans” (PLoS Biology, 2006):

Molecular target: T1, C. elegans syntaxin-GST (UNC-64 cytoplasmic domain, aa 1-266) (C. elegans, UniProt O16000 1-266)
T1 construct: C. elegans syntaxin (UNC-64), cytoplasmic domain aa 1-266, lacking the TM domain, cloned into pGEX-2T; pGEX-2T normally puts GST at the N-terminus (surmise); also called GST syntaxin; source: recombinant, batch-purified with glutathione agarose under native conditions
T1 sequence (looked up): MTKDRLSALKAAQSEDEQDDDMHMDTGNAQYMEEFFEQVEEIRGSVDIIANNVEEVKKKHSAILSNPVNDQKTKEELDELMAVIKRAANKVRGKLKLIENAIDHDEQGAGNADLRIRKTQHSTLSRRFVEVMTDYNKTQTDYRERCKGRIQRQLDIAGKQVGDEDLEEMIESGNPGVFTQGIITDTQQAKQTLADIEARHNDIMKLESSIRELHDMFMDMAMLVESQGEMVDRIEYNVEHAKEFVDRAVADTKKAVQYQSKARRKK
Test: pull-down; ~1.6 uM each of C. elegans syntaxin-GST, rat SNAP-25-His6 and His6-TOM-1Ct or His6-SNB-1, 2 h to overnight at 4 °C in D-buffer, isolated on glutathione agarose; Coomassie Blue staining, densitometry
Settings: both partners purified

B1: C. elegans synaptobrevin SNB-1 cytoplasmic domain (aa 1-88), His6T7-tagged (domain or fragment, UniProt O02495 1-88, looked up)
chain: MDAQGDAGAQGGSQGGPRPSNKRLQQTQAQVDEVVGIMKVNVEKVLERDQKLSQLDDRADALQEGASQFEKSAATLKRKYWWKNIKMM
notes: C. elegans synaptobrevin (SNB-1), cytoplasmic domain aa 1-88, lacking the TM domain, cloned into pRSETC; also called His6T7-tagged SNB-1; His6-SNB-1; source: recombinant, purified (Ni-NTA agarose)
- binding result: binds
